Source: US20120122128A1 (ALLERGAN, published 2012)

Target: T1, SNAP-25206 uncleaved substrate in PC12 cells (rat (PC12 cell line), UniProt P60881 1-206, limits assumed)
T1 construct: also called uncleaved SNAP-25206 substrate; uncleaved SNAP-25
Experiment: immunocytochemistry of PC12 cells +/- GFP-BoNT/A-LC, ascites 1:10

T1 sequence (P60881 whole entry): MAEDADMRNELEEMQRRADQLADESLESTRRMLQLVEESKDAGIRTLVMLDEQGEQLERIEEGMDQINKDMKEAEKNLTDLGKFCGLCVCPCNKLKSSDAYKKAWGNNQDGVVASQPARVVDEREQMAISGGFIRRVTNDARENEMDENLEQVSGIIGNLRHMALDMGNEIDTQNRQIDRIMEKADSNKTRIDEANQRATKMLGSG

B1: α-SNAP-25 monoclonal antibody 3C1A5 (antibody, V domains shown)
VH: VKLQESGAELVKPGASVKISCKASGYTFTDHSIHWVKQKPGQGLEWIGYLFPGNGNFEYNEKFKGKATLTADKSSSTVYMYLNSLTSEDSAVYFCKRMGYWGQGTTVTVSS
VL: DIKMTQSPSSMYASLGERVTITCKASQDIKSYLSWYQQKPWKSPKTLIYYATSLADGVPSRFSGSGSGQDYSLTISSLESDDTATYYCLQHGESPFTFGSGTKLEIKR
Q: Does B1 bind?
A: Result: no binding
